In US20250313629A1 (Hoffmann-La Roche, published 2025):
Substitutions are numbered along the chain they refer to.

T1: Lag3 expressed on cells (recombinant CHO cells expressing Lag3; Lag3+ NFAT Jurkat effector cells) (human, UniProt P18627 29-525)
T1 sequence: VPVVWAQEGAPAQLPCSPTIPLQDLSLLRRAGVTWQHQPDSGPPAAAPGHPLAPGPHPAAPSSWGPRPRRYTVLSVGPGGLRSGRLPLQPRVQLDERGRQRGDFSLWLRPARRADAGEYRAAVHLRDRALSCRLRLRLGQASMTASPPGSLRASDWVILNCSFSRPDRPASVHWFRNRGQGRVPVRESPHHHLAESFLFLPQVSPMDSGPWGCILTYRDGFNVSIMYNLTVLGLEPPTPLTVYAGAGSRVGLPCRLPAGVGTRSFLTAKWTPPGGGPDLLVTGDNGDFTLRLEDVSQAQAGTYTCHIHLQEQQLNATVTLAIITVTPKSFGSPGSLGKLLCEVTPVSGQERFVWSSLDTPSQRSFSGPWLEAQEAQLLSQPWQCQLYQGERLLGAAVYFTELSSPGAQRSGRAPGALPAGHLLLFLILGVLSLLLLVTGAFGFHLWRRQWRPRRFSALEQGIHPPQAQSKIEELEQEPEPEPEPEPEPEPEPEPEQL

T2: biotinylated-Lag3 (UniProt P18627 23-450, limits assumed, biotinylated (site not stated))
T2 construct: also called LAG-3 (A375 MHC-II ELISA)
T2 sequence (looked up): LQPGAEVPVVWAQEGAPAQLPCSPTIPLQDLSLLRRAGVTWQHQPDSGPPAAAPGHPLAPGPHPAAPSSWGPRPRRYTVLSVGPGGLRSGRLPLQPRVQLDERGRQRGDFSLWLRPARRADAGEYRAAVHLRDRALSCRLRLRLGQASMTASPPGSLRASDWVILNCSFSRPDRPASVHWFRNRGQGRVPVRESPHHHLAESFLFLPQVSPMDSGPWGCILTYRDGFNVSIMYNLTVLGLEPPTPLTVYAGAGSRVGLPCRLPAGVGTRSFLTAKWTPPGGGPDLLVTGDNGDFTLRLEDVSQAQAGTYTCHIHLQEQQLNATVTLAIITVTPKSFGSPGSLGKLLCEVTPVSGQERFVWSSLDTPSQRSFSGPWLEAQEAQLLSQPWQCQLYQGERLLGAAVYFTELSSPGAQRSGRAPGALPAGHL

B1: aLAG3(0411) (antibody, V domains shown)
VH: EVHLLESGGGLVQPGGSLRLSCAASGFIVDDYTMNWVRQAPGKGLEWVSVISWDGGATYYADSVKGRFTISRDDFKNTLYLQMNSLRAEDTAVYYCAKGLTDDTLYGSDYWGQGTLVTVSS
VL: DIQMTQSPSSLSASVGDRVTITCRASQSIVSYLNWYQQKPGKAPKLLIYASSSLQSGVPSRFSGSGSGTDFTLTISSLQPEDFATYYCQQTYSTPLTFGGGTKVEIK
notes: also called aLAG3 (411)
B2: aLAG3(0414) (antibody, V domains shown)
VH: B1 VH with H3Q, V29F, S49A, A57G, A61T, D103T
VL: B1 VL with V30S, S51A, S53T, T94S
notes: also called aLAG3 (414)
B3: aLAG3(0416) (antibody, V domains shown)
VH: EVQLVESGGGLVQPGGSLRLACAASGFTFSDYAMSWVRQAPGKGLEWVSGIDNSGYYTYYTDSVKGRFTISRDDVKNTLYLQMNSLRAEDTAVYLCTKTHSGLIVNDAFDIWGQGTMVTVSS
VL: B1 VL with M4L, V30S, A50D, S51A, Q55E, F71A, T91S
notes: also called aLAG3 (416)
B4: aLAG3(0417) (antibody, V domains shown)
VH: B3 VH
VL: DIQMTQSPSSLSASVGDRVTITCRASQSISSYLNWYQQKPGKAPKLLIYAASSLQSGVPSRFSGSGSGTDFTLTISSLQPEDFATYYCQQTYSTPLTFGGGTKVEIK
notes: also called aLAG3 (417)
B5: MDX25F7 (25F7) (antibody, V domains shown)
VH: QVQLQQWGAGLLKPSETLSLTCAVYGGSFSDYYWNWIRQPPGKGLEWIGEINHNGNTNSNPSLKSRVTLSLDTSKNQFSLKLRSVTAADTAVYYCAFGYSDYEYNWFDPWGQGTLVTVSS
VL: EIVLTQSPATLSLSPGERATLSCRASQSISSYLAWYQQKPGQAPRLLIYDASNRATGIPARFSGSGSGTDFTLTISSLEPEDFAVYYCQQRSNWPLTFGQGTNLEIK
notes: also called Medarex 25F7
B6: humanized BAP050 (LAG525) (antibody, V domains shown)
VH: QIQLVQSGPELKKPGETVKISCKASGFTLTNYGMNWVRQTPGKGLKWMGWINTDTGEPTYADDFKGRFAFSLETSASTASLQINNLKNADTATYFCARNPPYYYGTNNAEAMDYWGQGTTVTVSS
VL: DIQMTQTTSSLSASLGDRVTISCSSSQDISNYLMWYQQKPDGTVKVLIYYTSTLHLGVPSRFSGSGSGTDYSLTISNLELEDIATYYCQQYYNLPWTFGQGTKVEIK
B7: BMS-986016 (antibody, V domains shown)
VH: B5 VH with N54R, N56S
VL: B5 VL
B8: aLAG3(0403) (antibody, V domains shown)
VH: EVQLLESGGGLVQPGGSLRLSCAASGFTFDDYTMHWVRQAPGKGLEWVSLVSWDGGGTYYTNSVKGRFTISRDNSKNTLYLQMNSLRAEDTAVYFCAKAITDTSLYGYDYWGQGILVTVSS
VL: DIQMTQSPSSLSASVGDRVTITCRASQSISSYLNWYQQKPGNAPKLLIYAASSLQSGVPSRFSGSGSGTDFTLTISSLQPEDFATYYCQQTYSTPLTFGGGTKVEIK
notes: also called anti-Lag3 aLAG3 (0403)

Biological target: T1, Lag3 expressed on cells (recombinant …)
Assay: cell-based or functional assay

Binder	EC50 [nM] in Jurkat LAG3 + SED + Raji, 1st assay	EC50 [nM] in Jurkat LAG3 + SED + Raji, 2nd assay	EC50 [nM] in Jurkat LAG3 + SED + Raji, 3rd assay
B1	1.1 nM	1 nM	
B2	1.1 nM	1 nM	1.8 nM
B3	3.1 nM	2.5 nM	3.5 nM
B4	1 nM		
B5		8.6 nM	
B6		22.6 nM	

Biological target: T3, cynomolgus Lag3 on cells (HEK293F cells transiently transfected with cyno-LAG-3); activated cynomolgus PBMC/T … (cynomolgus)
T3 construct: whole, on cells
Assay: flow cytometry on CD3/CD28-activated cynomolgus PBMC, antibody at 10 ug/ml
Description: Thus, cynomolgus peripheral blood mononuclear cells (PBMC) were prepared from fresh cynomolgus blood and were then activated by CD3/CD28 pre-treatment (1 μg/ml) for 2-3 days. […] After staining, cells were washed two times with PBS/2% FCS and analyzed on a FACS Fortessa (BD).

Binder	percentage of Lag3 positive cells
B1	46.6%
B2	43%
B3	38.9%
B4	35.3%
B5	22.1%
B7	18.6%
B6	50.7%
B8	44.2%

Biological target: T2, biotinylated-Lag3
Assay: competition cell ELISA: antibody pre-incubated with biotinylated Lag3, binding to MHC-II on A375 cells
Description: 25 μl/well of A375 cells (10000 cells/well) were seeded into tissue culture treated 384-well plates (Corning, 3701) and incubated at 37° C. overnight. […] After washing (1×90 μl in PBST) cells were fixed by addition of 30 μl/well glutaraldehyde to a final concentration of 0.05% (Sigma Cat.No: G5882), 10 min at room temperature. After washing (3×90 μl/well with PBST-buffer) 25 μl/well Poly-HRP40-Streptavidin (Fitzgerald, 65R-S104PHRPx) was added in a 1:2000 or 1:8000 dilution and incubated at RT for 1 h. After washing (3×90 μl/well with PBST-buffer) 25 μl/well TMB substrate (Roche, 11835033001) was added and incubated for 2 to 10 min. Measurement took place on a Tecan Safire 2 instrument at 370/492 nm.

Binder	IC50
B6	1 nM
